Columns and labels:
[1] = target: FGFR3 (UniProt P22607); assay: phosphorylation enrichment, bacterial display (enrichment ratio); higher = better substrate or ligand; peptides without Tyr show the background
[2] = target: EPHB2 (UniProt P29323); assay: as above
[3] = target: EPHB1 (UniProt P54762); assay: as above
[4] = tested on: Fer (mouse); assay: as above
[5] = tested on: c-Src; assay: as above
[6] = target: Fyn (UniProt P06241); assay: as above
[7] = tested on: c-Abl (mouse); assay: as above
[8] = target: Fes (UniProt P07332); assay: as above
Sequence of Fes (P07332 whole entry, looked up): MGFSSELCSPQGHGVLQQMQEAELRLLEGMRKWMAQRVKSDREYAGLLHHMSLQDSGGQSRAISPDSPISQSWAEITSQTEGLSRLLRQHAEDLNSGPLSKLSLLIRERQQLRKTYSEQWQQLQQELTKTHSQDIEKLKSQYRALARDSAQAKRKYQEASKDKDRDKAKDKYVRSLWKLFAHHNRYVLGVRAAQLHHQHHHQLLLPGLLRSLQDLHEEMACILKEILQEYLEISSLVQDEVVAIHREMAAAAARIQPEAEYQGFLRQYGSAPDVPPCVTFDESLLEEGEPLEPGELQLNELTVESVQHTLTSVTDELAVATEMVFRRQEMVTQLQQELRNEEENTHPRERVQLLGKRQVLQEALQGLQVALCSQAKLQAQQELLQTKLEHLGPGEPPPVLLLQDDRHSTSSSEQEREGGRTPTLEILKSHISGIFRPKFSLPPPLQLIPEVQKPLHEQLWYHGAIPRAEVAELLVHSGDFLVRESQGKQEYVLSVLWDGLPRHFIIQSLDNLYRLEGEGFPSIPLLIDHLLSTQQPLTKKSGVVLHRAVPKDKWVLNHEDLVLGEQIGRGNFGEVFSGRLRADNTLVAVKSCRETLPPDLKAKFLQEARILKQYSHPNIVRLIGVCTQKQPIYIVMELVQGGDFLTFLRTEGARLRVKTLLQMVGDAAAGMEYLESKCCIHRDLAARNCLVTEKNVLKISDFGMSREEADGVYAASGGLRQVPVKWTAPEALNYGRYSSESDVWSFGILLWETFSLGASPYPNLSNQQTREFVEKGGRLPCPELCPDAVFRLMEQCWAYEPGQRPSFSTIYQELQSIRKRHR

[9] = target: MERTK (UniProt Q12866); assay: as above
Sequence of MERTK (Q12866 whole entry, looked up): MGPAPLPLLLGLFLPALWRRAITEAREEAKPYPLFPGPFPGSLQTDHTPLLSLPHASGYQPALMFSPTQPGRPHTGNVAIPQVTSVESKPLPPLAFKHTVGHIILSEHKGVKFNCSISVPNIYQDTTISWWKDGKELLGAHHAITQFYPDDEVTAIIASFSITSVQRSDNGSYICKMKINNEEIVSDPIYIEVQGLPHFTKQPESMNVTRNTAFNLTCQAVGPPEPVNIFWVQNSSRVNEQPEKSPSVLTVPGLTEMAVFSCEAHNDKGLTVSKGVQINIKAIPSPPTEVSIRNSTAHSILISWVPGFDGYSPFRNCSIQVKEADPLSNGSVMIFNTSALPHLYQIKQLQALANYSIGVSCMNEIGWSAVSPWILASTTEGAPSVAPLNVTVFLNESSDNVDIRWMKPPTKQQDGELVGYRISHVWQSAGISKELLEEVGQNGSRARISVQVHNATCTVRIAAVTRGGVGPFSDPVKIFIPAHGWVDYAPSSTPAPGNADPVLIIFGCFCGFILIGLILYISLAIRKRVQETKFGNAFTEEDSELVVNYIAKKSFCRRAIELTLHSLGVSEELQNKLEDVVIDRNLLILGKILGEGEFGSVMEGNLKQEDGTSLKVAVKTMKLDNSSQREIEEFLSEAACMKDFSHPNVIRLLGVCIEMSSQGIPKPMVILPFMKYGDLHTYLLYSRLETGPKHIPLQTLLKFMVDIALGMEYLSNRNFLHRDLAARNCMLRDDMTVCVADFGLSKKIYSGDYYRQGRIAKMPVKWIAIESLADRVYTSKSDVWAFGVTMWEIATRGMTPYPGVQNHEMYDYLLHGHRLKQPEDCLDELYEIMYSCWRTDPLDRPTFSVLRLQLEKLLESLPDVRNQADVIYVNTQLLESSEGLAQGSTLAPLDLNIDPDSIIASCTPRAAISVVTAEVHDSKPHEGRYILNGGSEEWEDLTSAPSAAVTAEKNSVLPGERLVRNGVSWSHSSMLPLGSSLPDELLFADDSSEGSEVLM

[10] = target: Jak2 (UniProt O60674); assay: as above
[11] = target: FGFR1 (UniProt P11362); assay: as above
[12] = target: Hck (UniProt P08631); assay: as above
Sequence of Hck (P08631 whole entry, looked up): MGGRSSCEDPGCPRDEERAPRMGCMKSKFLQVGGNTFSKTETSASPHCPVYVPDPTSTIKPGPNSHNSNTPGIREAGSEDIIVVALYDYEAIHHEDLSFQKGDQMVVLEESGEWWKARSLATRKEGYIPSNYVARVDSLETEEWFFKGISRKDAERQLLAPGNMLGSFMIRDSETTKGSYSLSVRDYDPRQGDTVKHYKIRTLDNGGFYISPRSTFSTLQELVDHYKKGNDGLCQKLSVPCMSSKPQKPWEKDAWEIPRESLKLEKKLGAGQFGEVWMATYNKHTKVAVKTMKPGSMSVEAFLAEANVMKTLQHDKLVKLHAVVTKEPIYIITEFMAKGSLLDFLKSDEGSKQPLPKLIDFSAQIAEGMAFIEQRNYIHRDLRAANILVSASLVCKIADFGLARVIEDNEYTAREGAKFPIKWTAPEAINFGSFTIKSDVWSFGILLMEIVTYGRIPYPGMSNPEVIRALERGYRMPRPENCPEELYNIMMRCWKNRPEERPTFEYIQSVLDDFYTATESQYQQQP

[13] = tested on: AncSZ; assay: as above
[14] = target: Grb2 SH2 (UniProt P62993); assay: SH2 binding enrichment of the phosphorylated peptide, bacterial display (enrichment ratio); higher = better substrate or ligand; peptides without Tyr show the background
[15] = target: SHP2-C SH2; assay: as above
[16] = target: c-Src SH2; assay: as above
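Throughout, for SH2 binding enrichment of the phosphorylated peptide, bacterial display: peptide library displayed on the E. coli surface as eCPX fusions, selected cells deep-sequenced, score is each peptide's frequency after selection divided by its frequency in the input.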
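Throughout, for phosphorylation enrichment, bacterial display: 11-residue human phosphosite peptides and single-mutation variants displayed on the E. coli surface, counted by deep sequencing, each peptide's frequency after selection divided by its frequency in the unselected input library; frequency after pTyr selection over input frequency; kinase dosed for 20-30% of maximal phosphorylation in three min.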

Sequence of Fyn (P06241 whole entry, looked up): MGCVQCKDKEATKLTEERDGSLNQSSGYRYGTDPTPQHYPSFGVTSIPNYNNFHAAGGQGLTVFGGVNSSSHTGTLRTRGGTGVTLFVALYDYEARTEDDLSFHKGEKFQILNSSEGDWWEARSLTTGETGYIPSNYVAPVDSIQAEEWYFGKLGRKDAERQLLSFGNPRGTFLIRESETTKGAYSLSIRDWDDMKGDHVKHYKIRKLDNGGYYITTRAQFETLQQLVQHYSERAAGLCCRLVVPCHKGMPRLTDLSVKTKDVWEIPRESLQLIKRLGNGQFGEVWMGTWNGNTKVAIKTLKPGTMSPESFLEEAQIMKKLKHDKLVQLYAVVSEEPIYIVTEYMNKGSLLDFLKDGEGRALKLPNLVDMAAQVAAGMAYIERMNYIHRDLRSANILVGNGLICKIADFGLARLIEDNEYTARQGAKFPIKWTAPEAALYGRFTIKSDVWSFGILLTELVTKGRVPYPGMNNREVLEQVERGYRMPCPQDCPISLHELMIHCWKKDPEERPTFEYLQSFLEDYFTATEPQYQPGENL
Sequence of EPHB2 (P29323 whole entry, looked up): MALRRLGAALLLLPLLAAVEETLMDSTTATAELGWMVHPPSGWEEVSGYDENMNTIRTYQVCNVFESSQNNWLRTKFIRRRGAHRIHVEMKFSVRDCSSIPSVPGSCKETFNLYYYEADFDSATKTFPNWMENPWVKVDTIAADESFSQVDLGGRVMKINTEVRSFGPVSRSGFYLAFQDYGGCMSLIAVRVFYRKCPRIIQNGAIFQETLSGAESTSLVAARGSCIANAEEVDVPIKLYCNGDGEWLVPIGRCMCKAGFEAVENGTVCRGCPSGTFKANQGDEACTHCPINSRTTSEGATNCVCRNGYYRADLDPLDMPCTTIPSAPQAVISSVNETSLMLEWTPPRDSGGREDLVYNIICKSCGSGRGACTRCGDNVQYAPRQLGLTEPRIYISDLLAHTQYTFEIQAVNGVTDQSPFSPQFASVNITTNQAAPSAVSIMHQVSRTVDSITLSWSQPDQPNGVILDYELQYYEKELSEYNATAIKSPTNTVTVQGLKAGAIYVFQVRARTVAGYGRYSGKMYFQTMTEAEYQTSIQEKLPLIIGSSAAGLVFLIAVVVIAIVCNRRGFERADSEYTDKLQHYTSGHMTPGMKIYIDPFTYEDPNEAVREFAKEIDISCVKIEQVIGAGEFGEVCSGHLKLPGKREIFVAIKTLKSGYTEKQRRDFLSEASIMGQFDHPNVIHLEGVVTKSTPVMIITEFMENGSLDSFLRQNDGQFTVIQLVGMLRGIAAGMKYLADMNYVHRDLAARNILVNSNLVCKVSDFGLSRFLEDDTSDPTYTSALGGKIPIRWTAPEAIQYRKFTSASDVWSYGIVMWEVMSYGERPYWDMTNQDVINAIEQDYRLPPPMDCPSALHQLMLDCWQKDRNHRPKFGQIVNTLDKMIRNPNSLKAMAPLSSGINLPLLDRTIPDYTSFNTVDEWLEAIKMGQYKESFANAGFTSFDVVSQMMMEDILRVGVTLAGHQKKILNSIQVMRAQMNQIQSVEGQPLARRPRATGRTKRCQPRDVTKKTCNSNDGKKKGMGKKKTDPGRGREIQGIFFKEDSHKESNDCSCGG
Sequence of FGFR3 (P22607 whole entry, looked up): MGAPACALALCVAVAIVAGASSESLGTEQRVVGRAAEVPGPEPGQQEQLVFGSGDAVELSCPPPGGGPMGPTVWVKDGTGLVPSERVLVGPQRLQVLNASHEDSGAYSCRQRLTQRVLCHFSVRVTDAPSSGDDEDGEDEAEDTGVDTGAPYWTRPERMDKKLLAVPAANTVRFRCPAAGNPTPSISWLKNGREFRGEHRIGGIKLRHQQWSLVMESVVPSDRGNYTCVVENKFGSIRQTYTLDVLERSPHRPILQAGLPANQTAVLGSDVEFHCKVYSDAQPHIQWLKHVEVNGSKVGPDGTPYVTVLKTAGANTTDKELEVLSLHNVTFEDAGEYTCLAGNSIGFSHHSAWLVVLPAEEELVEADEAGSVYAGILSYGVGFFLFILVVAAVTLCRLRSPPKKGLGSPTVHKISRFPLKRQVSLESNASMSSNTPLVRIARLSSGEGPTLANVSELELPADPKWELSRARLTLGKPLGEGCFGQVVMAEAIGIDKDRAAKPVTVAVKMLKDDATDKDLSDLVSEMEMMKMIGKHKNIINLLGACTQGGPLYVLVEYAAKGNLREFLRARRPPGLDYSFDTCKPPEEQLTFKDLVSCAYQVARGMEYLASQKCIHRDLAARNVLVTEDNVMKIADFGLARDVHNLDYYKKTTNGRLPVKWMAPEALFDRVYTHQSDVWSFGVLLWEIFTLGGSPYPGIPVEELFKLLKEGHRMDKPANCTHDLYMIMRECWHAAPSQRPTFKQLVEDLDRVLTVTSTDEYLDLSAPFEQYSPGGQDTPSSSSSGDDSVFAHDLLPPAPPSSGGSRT

Sequence	SH2 binding enrichment [14]	SH2 binding enrichment [15]	SH2 binding enrichment [16]	phosphorylation enrichment [1]	phosphorylation enrichment [2]	phosphorylation enrichment [3]	phosphorylation enrichment [4]	phosphorylation enrichment [5]	phosphorylation enrichment [6]	phosphorylation enrichment [7]	phosphorylation enrichment [8]	phosphorylation enrichment [9]	phosphorylation enrichment [10]	phosphorylation enrichment [11]	phosphorylation enrichment [12]	phosphorylation enrichment [13]
HRGCLYLAIEY [TEK_Y899_Y897C]	1.04	0.564	0.423	1.31	1.17	1.01	0.868	0.936	0.695	1.49	2.3	0.691	1.88	0.827	1.05	1.86
VHNLNYYKKTT [FGFR3_Y647_D646N]	1.04	0.746	0.539	0.665	0.449	0.429	0.32	0.487	0.435	0.671	0.682	0.528	0.728	0.447	0.464	0.506
NTGLEYIKFTW [HRH1_Y386_D385E]	1.11	0.778	0.614	0.851	0.633	0.572	0.449	0.495	0.531	0.657	1.09	0.474	1.37	0.76	0.58	1.16
QSQQAYQEAFE [YWHAZ_Y149]	0.873	0.526	1.32	0.693	0.47	0.355	0.597	0.578	0.397	1.71	1.22	0.541	1.28	0.488	0.48	1.3
AAARPYHIQKW [ACSBG1_Y677]	1.41	1.27	1.19	0.584	0.465	0.468	0.279	0.62	0.371	0.673	0.675	0.377	0.682	0.462	0.543	0.601
KMGNEYVTKGQ [MYH7_Y410_V406M]	0.713	0.576	0.408	0.447	0.353	0.367	0.385	0.344	0.358	0.326	0.523	0.374	0.418	0.375	0.451	0.447
CTTIHYNCMCN [TP53_Y234_Y236C]	0.775	0.823	0.508	0.715	0.712	0.591	0.541	0.468	0.45	0.689	1.08	0.426	0.885	0.417	0.475	1.06
LSERGYSFVTT [ACTA2_Y200_T196S]	0.806	5.26	8.52	1.46	0.704	0.94	1.06	0.693	0.81	0.925	1.41	0.986	1.08	0.955	0.724	1.29
HFVFFYSFLLK [PTEN_Y178_R173H_YF]	2.43	1.14	1.05	1.14	0.844	1.32	1.01	1.55	1.07	2.85	2.93	1.44	3.35	0.682	0.819	2.18

Further lines, with some results ahead:

SH2 binding enrichment [14]	SH2 binding enrichment [15]	SH2 binding enrichment [16]	Sequence	phosphorylation enrichment [1]	phosphorylation enrichment [2]	phosphorylation enrichment [3]	phosphorylation enrichment [4]	phosphorylation enrichment [5]	phosphorylation enrichment [6]	phosphorylation enrichment [7]	phosphorylation enrichment [8]	phosphorylation enrichment [9]	phosphorylation enrichment [10]	phosphorylation enrichment [11]	phosphorylation enrichment [12]	phosphorylation enrichment [13]
0.96	0.718	1.86	EYHRLYEEYTR [PIK3R1_Y467_D464H]	1.61	5.18	3.87	2.31	4.19	5.5	0.653	0.898	2.48	0.978	2.52	5.42	1.45
0.88	1.43	10.7	VDSLRYIYPKL [EIF2B3_Y92_A87V]	0.655	0.506	0.561	0.532	0.424	0.48	0.553	0.844	0.489	0.733	0.453	0.524	0.757
0.664	0.475	0.38	KDLPNYNWKSF [KISS1_Y112_N115K]	0.598	0.529	0.532	0.464	0.588	0.438	0.72	0.865	0.455	0.918	0.418	0.439	0.655
0.766	0.802	2.03	KSIQLYDTPFE [SHB_Y297_G293S_YF]	0.683	18	12.7	3.47	0.784	1.01	1.29	1	6.02	0.9	0.518	2.17	1.18
0.735	0.365	0.445	SHMVDYQPYRK [TEX37_Y25]	0.505	0.402	0.609	0.575	0.673	0.59	0.91	0.83	0.575	0.719	0.47	0.701	0.759
0.908	0.974	0.602	LIPIKYKAMKK [MYD88_Y257]	0.92	0.384	0.55	0.405	0.302	0.489	0.325	0.96	0.413	0.297	0.755	0.342	0.388
0.743	0.836	0.837	KMKGDYYCYLA [YWHAG_Y130_R132C]	9.02	4.35	4.58	0.895	1.78	1.38	1.57	1.24	6.74	3.93	11	1.58	2.32
